Assay results published in patent US20060165683A1, “Methods and compositions for control of bone formation via modulation of sympathetic tone” (priority 2001, published 2006).
“Also recorded” adds a separate entry of the source.

B1: leptin: polypeptide hormone, product of the ob gene; human leptin (Sigma) infused ICV (protein)
chain: VPIQKVQDDTKTLIKTIVTRINDISHTQSVSAKQRVTGLDFIPGLHPILSLSKMDQTLAVYQQVLTSLPSQNVLQIANDLENLRDLLHLLAFSKSCSLPQTSGLQKPESLDGVLEASLYSTEVVALSRLQGSLQDILQQLDVSPEC

Tests used:
[1] = tested on: murine primary osteoblasts; test: cAMP production in murine primary osteoblasts; assay type: cell-based, mouse; settings: confluent cultures, 100 μM IBMX, 5 min treatment; PTH as positive control
Method: Primary osteoblast cultures were established as previously described (see, e.g., Ducy et al., 2000, Cell 100: 197-207) and maintained in αMEM/0.1 mg/ml ascorbic acid supplemented with 10% FBS. SaOS-2 were grown in MEM/10% FBS. For cAMP assay confluent cultures were incubated with serum free medium containing 100 μM IBMX (3-isobutyl-1-methylxanthine, Sigma) for 8 minutes before PBS, PTH(1-34) (Bachem), isoproterenol, norepinephrine, phenylephrine (Sigma) or propranolol were added for 5 min. Intracellular cAMP concentration was measured by immunoassay (R&D Systems). For gene expression analyses, primary osteoblasts were treated for 72 hours with appropriate drugs in 0.1% FBS. Hormone serum levels were quantified using immunoassays kits from Peninsula Laboratories (Insulin) or Alpco Diagnostics (leptin). Deoxypyridinoline cross-links and Creatinine were measured in morning urines using the Quidel kits. a1(I) leptin bioactivity was verified by cotransfection of 293 cells expressing ObRb with a STAT3-responsive-luc reporter construct, pSVβgal plasmid and a1(I) leptin expression vector or mock. Twenty-four hours later luciferase and β-galactosidase activities were measured. Data represents ratios of luciferase/β-galactosidase activities, and values are mean of 6 independent transfection experiments.
For a sympathetic regulation of bone formation to exist several requirements have to be fulfilled. The first one is that functional adrenergic receptors are present on osteoblasts. […] Immunohistochemical analysis of long bones from transgenic mice expressing LacZ under the control of the osteoblast-specific fragment of the a1(I) collagen promoter verified the presence of β2-adrenergic receptors on osteoblasts (FIG. 13B). No other adrenergic receptor subtype could be detected. […] Electron micrographs confirmed the presence of unmyelinated peripheral nerve axons coursing through the marrow adjacent to bone trabeculae and to osteoblasts (FIG. 13E). β-adrenergic receptors are G-coupled receptors that signal through the cAMP pathway (see, e.g., Benovic et al., 1988, Annu Rev Cell Biol 4:405-428). Thus, to assess the biologic relevance of the presence of β2-adrenergic receptors on osteoblasts, these cells were treated with isoproterenol, a β-adrenergic agonist, alone or in the presence of propranolol, a β-adrenergic receptor antagonist; with norepinephrine, the natural ligand of β-adrenergic receptors; with phenylephrine, an α-adrenergic agonist or with vehicle and measured cAMP production. As a positive control, parathyroid hormone (PTH) that binds to another G-coupled receptor present in osteoblasts was used (Gardella & Juppner, 2001, Trends Endocrinol Metab 12:210-217.). […] These effects were abolished by propranolol treatment. […]

[2] = tested on: GTG-treated ob/ob mice; test: Leptin ICV infusion in GTG-treated ob/ob mice; assay type: in vivo, mouse
Method: (§1) Wildtype (C57BL/6J) and mutant (C57BL/6J A^y/a, C57BL/6J ob/ob) mice were obtained from the Jackson laboratory and adrenal medullectomized mice from Harlan Tecklad laboratory. Dbh−/− mice were rescued as previously described (Thomas et al., 1998, Neurochem 70:2468-2476). Isoproterenol (Sigma) was injected intraperitoneally (ip) once daily for 6 weeks at 30 mg/kg (wt) or 3 mg/kg (ob/ob). Propranolol (Sigma) was added to the drinking water at a concentration of 0.5 g/l. For ICV infusion, a 28-gauge cannula (Brain infusion kit II, Alza) was implanted into the third ventricle as previously described infusing human leptin (Sigma) at 8 ng/hr or MT-II at 125 ng/hr (Phoenix Pharmaceuticals) for 28 days (see, e.g., Ducy et al., 2000, Cell 100: 197-207). The cannula was connected to an osmotic pump (Alza) placed in the dorsal subcutaneous space of the animal. For parabiosis longitudinal incisions were made in the skin and in the peritoneal cavity along one side on each mouse. Edges of the incisions were connected by suture to induce coelioanastomosis. Cross-circulation was quantified by injecting 1 ml/kg 0.25% Evans blue into the tail vein of one mouse of the parabiosed pair. After 30 min. blood was collected from both mice by retroorbital bleeding and the blood exchange rate was calculated according to standard techniques (see, e.g., Harris & Martin, 1984, Am J Physiol 247:R380-386). […]

[3] = tested on: Dbh-deficient mice; test: Leptin ICV infusion in Dbh-deficient mice; assay type: in vivo, mouse
Method: as §1

[4] = tested on: parabiosed ob/ob mice; test: Cross circulation (parabiosis) between ob/ob mice with leptin ICV in one mouse of each pair; assay type: in vivo
Description: Cross Circulation (Parabiosis) Procedure. Following anesthesia by standard procedures, the surgery is made under adequate anesthesia and aseptic techniques. A longitudinal incision is made along one side on each mouse and skin is loosened from connective tissue. The ventral edges of the incision are joined by suture. Abdominal cavity of each mouse is opened and connected to make coelio anastomosis. Finally, the dorsal edges of the skin incision are joined. Parabiosed mice are housed in separate cages subsequently. Mice used for this procedure are syngenic to avoid immune reactions. Bone histology and histomorphometry are performed at the end of the treatment period to determine bone mass.
To determine whether the signal(s) emanating from the brain and controlling bone formation was/were of humoral nature, cross circulation (parabiosis) experiments were performed between ob/ob mice. Four weeks after establishing and verifying the cross circulation, a pump delivering leptin ICV (8 ng/h) was installed in one mouse of each parabiosed pair. […] Body weight and bone histology of the ipsilateral and contralateral mouse of each pair was analyzed four weeks later, reasoning that if leptin was using humoral means to control body weight and bone mass, both mice in each pair should respond equally well to the leptin infusion.
Wildtype (C57BL/6J) and mutant (C57BL/6J A^y/a, C57BL/6J ob/ob) mice were obtained from the Jackson laboratory and adrenal medullectomized mice from Harlan Tecklad laboratory. Dbh−/− mice were rescued as previously described (Thomas et al., 1998, Neurochem 70:2468-2476). Isoproterenol (Sigma) was injected intraperitoneally (ip) once daily for 6 weeks at 30 mg/kg (wt) or 3 mg/kg (ob/ob). Propranolol (Sigma) was added to the drinking water at a concentration of 0.5 g/l. For ICV infusion, a 28-gauge cannula (Brain infusion kit II, Alza) was implanted into the third ventricle as previously described infusing human leptin (Sigma) at 8 ng/hr or MT-II at 125 ng/hr (Phoenix Pharmaceuticals) for 28 days (see, e.g., Ducy et al., 2000, Cell 100: 197-207). The cannula was connected to an osmotic pump (Alza) placed in the dorsal subcutaneous space of the animal. For parabiosis longitudinal incisions were made in the skin and in the peritoneal cavity along one side on each mouse. Edges of the incisions were connected by suture to induce coelioanastomosis. Cross-circulation was quantified by injecting 1 ml/kg 0.25% Evans blue into the tail vein of one mouse of the parabiosed pair. After 30 min. blood was collected from both mice by retroorbital bleeding and the blood exchange rate was calculated according to standard techniques (see, e.g., Harris & Martin, 1984, Am J Physiol 247:R380-386). […] Two weeks after parabiosis a pump delivering leptin ICV in one animal of each pair was implanted. For GTG lesioning, 4-week-old C57BL/6J mice were given a single ip injection of either PBS or GTG (0.5 mg/g). For MSG lesioning, 2 day-old C57BL/6J pups were injected daily subcutaneously with either PBS or MSG (2 mg/g) for 10 days.
The next question was whether the signal(s) emanating from the hypothalamic antiosteogenic network was/were of humoral or of neuronal nature. To that end, cross-circulation (parabiosis) experiments between ob/ob animals (that have no circulating leptin) were relied upon. […] Four weeks later the animals were sacrificed and analyzed.

[5] = contralateral parabiosed partner
[6] = ipsilateral mouse, 8 ng/h, four weeks

Molecule | cAMP production [1] | body weight [2] | bone mass [2] | bone mass [3] | gonadal fat pad [3] | body weight loss in the contralateral mouse [4, 5] | bone mass / bone volume of the contralateral mouse [4, 5] | body weight of the ob/ob mouse receiving leptin ICV [4, 6] | bone mass / bone volume of the ob/ob mouse receiving leptin ICV [4, 6] | leptin in plasma / serum (leakage into the general circulation) ([4]; parabiosed ob/ob mice after ICV infusion)
CC(C)NCC(O)c1ccc(O)c(O)c1 (stereo not shown) [isoproterenol] | increased | – | – | – | – | – | – | – | – | –
B1 | – | decreased | failed to decrease | failed to decrease | near disappearance | never observed | never observed; also recorded: no modification | dropped considerably | dropped considerably; also recorded: dropped significantly | absence of measurable leptin
